# Results reported in publication PMC8204860.
# Target: TRAPPIII complex, P46944;P38334;Q03337;P36149;Q03784;Q03630;Q99394
# Assay: in vivo anchor-away assay (colocalization of Trs85-mNeonGreen with mitochondrially anchored Rab, fluorescence microscopy)
# Conditions: parent: est. 0.55; read off a plot
row,Substance,other: Mander's Overlap Coefficient
1,"chimeric construct containing the NBD of Rab11/Ypt31 and the HVD of Rab1/Ypt1, mitochondrially anchored K184A; K185A; E186A",0.58
2,"chimeric construct containing the NBD of Rab11/Ypt31 and the HVD of Rab1/Ypt1, mitochondrially anchored T181A; T182A; Q183A",0.54
3,"chimeric construct containing the NBD of Rab11/Ypt31 and the HVD of Rab1/Ypt1, mitochondrially anchored L198A; T199A; N200A; T201A",0.21

# Next, values leading:
row,other: Mander's Overlap Coefficient,Substance
1,0.3,"chimeric construct containing the NBD of Rab11/Ypt31 and the HVD of Rab1/Ypt1, mitochondrially anchored V191A; N192A; L193A"
2,0.68,"chimeric construct containing the NBD of Rab11/Ypt31 and the HVD of Rab1/Ypt1, mitochondrially anchored D187A; K188A; N190A"
3,0.28,"chimeric construct containing the NBD of Rab11/Ypt31 and the HVD of Rab1/Ypt1, mitochondrially anchored K194A; Q196A; S197A"
